From the RNAGym collection of RNA variant scans (doi:10.7554/elife.90254)

B1: LINE1-full (parent)
chain: UACGUAGGUGGUUUUCCCCUGAUAGUGCUAAGGGGGCCUGGAAGUUUGGACUGGGCAGAGCUCAACACAGCGUGGCAAAGUGGCUGUGGCUAGACUGCCUCUCUGGAUUCCUCGUCACUCAGCAGGGCAUCUCUGAGAGAAAUGCC

Variants of: B1
Assay: self-cleavage, relative activity (ratio to wild type); higher = more cleavage; in vitro, sequencing; the parent is a self-cleaving ribozyme

Q: Which self-cleavage does the source give for UACGUAGGUGGUCUUCCCCUGAUAGUGCUAAGGGGGCCUGGAAGUUUGGACUGGGCAGAGCUCAACGCAGCGUGGCAAAGUGGCUGUGGCUAGACUGCCUCUCUGGAUUCCUCGUCACUCAGCAGGGCAUCUCUGAGAGAAAUGCC here?
A: 0.71

Q: For UACGUAGGUGGUUUUCCCCUGAUAGUGCUAAGGGGGCCUGGAAGUUUGGACUGGGCAGAGCUAAACACAGCGUGGCAAAGUGGCUGUGGCUAGACUGCCUCUCUGGAUUCCUCGUCGCUCAGCAGGGCAUCUCUGAGAGAAAUGCC, which self-cleavage is on record?
A: 0.08

Q: Which self-cleavage does the source give for UACGUAGGUGGUUUUCCCCUGAUAGUGCUAAGGGGGCCUGGAAGCUUGGACUGGGCAGAGCUCAACACAGCGUUGCAAAGUGGCUGUGGCUAGACUGCCUCUCUGGAUUCCUCGUCACUCAGCAGGGCAUCUCUGAGAGAAAUGCC here?
A: 1.35

Q: With UACGUAGGUGGUUUUCCCCUGAUAGUGCUAAGGGGGCCGGGAAGUUUGGACUGGGCAGAGCCCAACACAGCGUGGCAAAGUGGCUGUGGCUAGACUGCCUCUCUGGAUUCCUCGUCACUCAGCAGGGCAUCUCUGAGAGAAAUGCC as the variant, how does the self-cleavage read?
A: 0.1

Q: Which self-cleavage does the source give for UACGUAGGUGGUUUUCCCCUGAUAGUGCUAAGGGGGCCUGGAAGUUUGGACUGGGCAGAGCUCAACACAGCGUGGCAAAGUGGCUGUGGCUAGACGGCCUCUCUGGAUUCCUCGUCACUCAGCAGGGCAUCUCUGAGAGAGAUGCC here?
A: 0

Q: With UACGUAGGUGGUUUUCCCCUGAUAGUGCUAAGGGGGCCUUGAAGUUUGGACUGGGCAGAGCUCAGCACAGCGUGGCAAAGUGGCUGUGGCUAGACUGCCUCUCUGGAUUCCUCGUCACUCAGCAGGGCAUCUCUGAGAGAAAUGCC as the variant, how does the self-cleavage read?
A: 0.04

Q: Which self-cleavage does the source give for UACGUAGGUGGUUUUCCCCUGAUAGUGCUAAGGGGGCCUGGGAGUUUGGACUGGGCAGAGCACAACACAGCGUGGCAAAGUGGCUGUGGCUAGACUGCCUCUCUGGAUUCCUCGUCACUCAGCAGGGCAUCUCUGAGAGAAAUGCC here?
A: 0.06

Q: For UACGUAGGUGGUUUUCCCCUGAUAGUGCUAAGGGGGCCUGGAAGUUUGGACUGGGCAGAGCUCAACAUAGCGUGGCGAAGUGGCUGUGGCUAGACUGCCUCUCUGGAUUCCUCGUCACUCAGCAGGGCAUCUCUGAGAGAAAUGCC, which self-cleavage is on record?
A: 0.24

Q: For UACGUAGGUGGUUUUCCCCUGAAAGUGCUAAGGGGGCCUGGAAGUUUGGACUGGGCAGAGCUCAACACAGCGUGGCAAAGUGGCUGUGGCUAGACUGCCUCUCUGGAUUCCUCGUCACUCAGCAGGGCAUCUCUGAGAGAAAAGCC, which self-cleavage is on record?
A: 2.26

Q: Which self-cleavage does the source give for UACGUAGGUGGUUUUCCCCUGAUAGUGCUAAGGGGGCCUGGAAGUUCGGACAGGGCAGAGCUCAACACAGCGUGGCAAAGUGGCUGUGGCUAGACUGCCUCUCUGGAUUCCUCGUCACUCAGCAGGGCAUCUCUGAGAGAAAUGCC here?
A: 1.72

Q: Which self-cleavage does the source give for UACGUAGGUGGUUUUCCCCUGAUAGUGCUAAGGGGGCCUGGAAGUUUGGGCUGGGCAGAGCUCAACACAGCGUGGCAAAGUGGCUGUGGCUAGACUGCCUCCCUGGAUUCCUCGUCACUCAGCAGGGCAUCUCUGAGAGAAAUGCC here?
A: 1.51

Q: For UACGUAGGUGGUUUUCCCCUGAUAGUGCUAAGGGGGCCUGGAAGUUUGGACUGGGCAGAGCUCAUCACAGCGAGGCAAAGUGGCUGUGGCUAGACUGCCUCUCUGGAUUCCUCGUCACUCAGCAGGGCAUCUCUGAGAGAAAUGCC, which self-cleavage is on record?
A: 0.18

Q: Which self-cleavage does the source give for CACGUAGGUGGUUUUCCCCUGAUAGUGCUAAGGGGGCCUGGAAGUUUGGACUGGGCAGAGCUCAACACAGCGUGGCAAAGUGGCUGUGGCUAGACUGCCUCUCAGGAUUCCUCGUCACUCAGCAGGGCAUCUCUGAGAGAAAUGCC here?
A: 0.75

Q: For UACGUAGGUGGUUUUCCUCUGAUAGUGCUAAGGGGGCCUGGAAGUUUGGACUGGGCAGAGCUCAACACAGCGAGGCAAAGUGGCUGUGGCUAGACUGCCUCUCUGGAUUCCUCGUCACUCAGCAGGGCAUCUCUGAGAGAAAUGCC, which self-cleavage is on record?
A: 1.78

Q: With UACGUAGGUGGUUUUCCCCUGAUAGUGCUUAGGGGGCCUGGAAGUUUGGACUGGGCAGAGCUCAACACAGCGUGGCAAAGUGGCUGUGGCUGGACUGCCUCUCUGGAUUCCUCGUCACUCAGCAGGGCAUCUCUGAGAGAAAUGCC as the variant, how does the self-cleavage read?
A: 0.11

Q: With UACGUAGGUGGUUUUCCCCUGAUAGUGCUAAGGGGGCCUGGAAGUUUGGACUGGGCAGAGCUCAACACAGCGUGGCAAAGUGGCUGUGGCUAGACUGCCUCUCUGGAUUCCUCGUCACUCAGCAGGGCAUCACUGAGAGUAAUGCC as the variant, how does the self-cleavage read?
A: 1.11

Q: Which self-cleavage does the source give for UACGUAGGUGGUUUUCCCCUGAUAGUGCUAAGGGGGCCUGGAAGUUUGGACUGGGCAGAGCUCAACACAGCGUGGCAAAGUGGCUGUAGCUAGACUGCCUCUCUGGAUUCCUCGUCACUCAGCAGGGCAUCUCUAAGAGAAAUGCC here?
A: 0.08

Q: For UACGUAGGUGGUUUUCCCCUGAUAGUGCUAAGGGGGCCUGGAAGUUUGGACUGGGCAGAGCUCAACACAGCGUGGCAAAGUGACUGUGGCUAGACUGCCUCUCUGGAUUCCUCGUCACUCAGCAGGGCAUCUCUGAGGGAAAUGCC, which self-cleavage is on record?
A: 0.73

Q: For UAGGUAGGUGGUUUUCCCCUGAUAGUGCUAAGGGGGCCUGGAAGUUUGGACUGGGCAGAGCUCAACACUGCGUGGCAAAGUGGCUGUGGCUAGACUGCCUCUCUGGAUUCCUCGUCACUCAGCAGGGCAUCUCUGAGAGAAAUGCC, which self-cleavage is on record?
A: 0.11

Q: With UACGUAGGUGGUAUUCCCCUGAUAGUGCUAAGGGGGCCUGGGAGUUUGGACUGGGCAGAGCUCAACACAGCGUGGCAAAGUGGCUGUGGCUAGACUGCCUCUCUGGAUUCCUCGUCACUCAGCAGGGCAUCUCUGAGAGAAAUGCC as the variant, how does the self-cleavage read?
A: 1.26

Q: Which self-cleavage does the source give for UACGUAGGUGGUUUUCCCCUGAUAGUGCUAAGGGGGCCUGGGAGUUUGGACUGGGCAGAGCUCAACACAGCGUGGCAAAGUGGCUGUGGCUAGACUGCCUCUCUGGAUUCUUCGUCACUCAGCAGGGCAUCUCUGAGAGAAAUGCC here?
A: 1.37

Q: With UACGUAGGUGGUUUUCCCCUGAUAGUGCUAAGGGGGCCUGGAAGUUUGGACUGGGCAGAGCUCAACACAGCGUGGGAAAGUGGAUGUGGCUAGACUGCCUCUCUGGAUUCCUCGUCACUCAGCAGGGCAUCUCUGAGAGAAAUGCC as the variant, how does the self-cleavage read?
A: 0.14

Q: For UACGUAGGUGGUUUUCCCCUGAUAGUGCUAAGGGGGCCUGGAAGUUUGGACUGGGCAGAGCUCAACACAGCGUGGCUAAGUGGCUGUGGCUAGACUGCCUCUCUGGAUGCCUCGUCACUCAGCAGGGCAUCUCUGAGAGAAAUGCC, which self-cleavage is on record?
A: 0.61

Q: For UACGUAGGUGGUUUUCCCCUGAUAGUGCUAAGGGGGCCUGGAAGUUUGGACUGGGCAUAGCUCAACACAGCGUGGCAAAGUGGCUGCGGCUAGACUGCCUCUCUGGAUUCCUCGUCACUCAGCAGGGCAUCUCUGAGAGAAAUGCC, which self-cleavage is on record?
A: 0.03

Q: With UACGUAGGUGGUUUUCCCCUGAUAGUGCUAAGGGGGCCUGGAAGUUUGGACUGGGCAGAGCUCAACACAGCGUGGCAAAGUGGCUGCGGCUAGACUGCCUCUCUGGAUUCCUCGUCACUCAGCAGGGCAUCUCAGAGAGAAAUGCC as the variant, how does the self-cleavage read?
A: 0.18

Q: For UACGUAGGUGGCUUUCCCCUGAUAGUGCUAAGGGGGCCUGGAAGUUUGGACUGGGCAGAGCUCAACACAGCGUGGCAAAGUGGCUGUGGCUAGACUACCUCUCUGGAUUCCUCGUCACUCAGCAGGGCAUCUCUGAGAGAAAUGCC, which self-cleavage is on record?
A: 0.22

Q: With UACGUAGGUGGUUUUCCCCUGAUAGUGCUAAGGGGGCCUGGAAGUCUGGACUGGGCAGAGCUCAACACAGCGUGGCAAAGUGGCUGUGGCUAGACUGCCUCUCUGGAUUCCUCGUCACUCAGCAUGGCAUCUCUGAGAGAAAUGCC as the variant, how does the self-cleavage read?
A: 0.8

Q: Which self-cleavage does the source give for UACGUAGGUGGUUUUCCCCUGAUAGUGCUAAGGGGGCCUGGAAGUUUGGACUGGGCAGAGCUCCACACAGCGUGGCAAAGUGGCUGUGGCUAGACUGCCUCUAUGGAUUCCUCGUCACUCAGCAGGGCAUCUCUGAGAGAAAUGCC here?
A: 0.29

Q: For UACGUAGGUGGUUUUCCCCUGAUAGUGCUAUGGGGGCCUGGAGGUUUGGACUGGGCAGAGCUCAACACAGCGUGGCAAAGUGGCUGUGGCUAGACUGCCUCUCUGGAUUCCUCGUCACUCAGCAGGGCAUCUCUGAGAGAAAUGCC, which self-cleavage is on record?
A: 0.9

Q: With UACGUAGGUGGUUUUCCCCUGCUAGUGCUAAGGGGGCCUGGAAGUUUGGUCUGGGCAGAGCUCAACACAGCGUGGCAAAGUGGCUGUGGCUAGACUGCCUCUCUGGAUUCCUCGUCACUCAGCAGGGCAUCUCUGAGAGAAAUGCC as the variant, how does the self-cleavage read?
A: 1.02

Q: With UACGUAGGUGGUUUUCCCCUGAUAGUGCUAAGGGGGCCUGGAAGUUUGGACUGGGCAGAGCUCAACACAGCGUGGCAAAGUGUCUGUGGCUAGACUGCCUCUCUGGAUUCCCCGUCACUCAGCAGGGCAUCUCUGAGAGAAAUGCC as the variant, how does the self-cleavage read?
A: 0.85

Q: Which self-cleavage does the source give for UACGUAGGUGGUUUUCCCCUGAUAGUGCUAAGGGGGCCUGGAAGUUUGGACUGGGCAGAGCCCAACACAGCGUGGCAAAGUGGCUGUGGCUAGACUGCCUCUCUGGAUUCCUUGUCACUCAGCAGGGCAUCUCUGAGAGAAAUGCC here?
A: 0

Q: Which self-cleavage does the source give for UACGUAGGUGGUUUUCCCCUGAUAGUGCUAAGGGGGCCUGGAAGUUUGGACUGGGCAGAGCUCAACACAGCGUGGCAAAGUGGCUGUGGCUAGGCUGCCUCUCUGGAUUCCUCAUCACUCAGCAGGGCAUCUCUGAGAGAAAUGCC here?
A: 0.23

Q: For UACGUAGGUGGUUUUCCCCUGAUAGUGCUAAGGGGGCCUGGAAGUUUGGACUGGGCAGAGCUCAACACAGCGUGGCAAAGUGGCUGUGGCUAGACUGCCUCUCUGGACUCCUCGUCACUCAGCCGGGCAUCUCUGAGAGAAAUGCC, which self-cleavage is on record?
A: 1.57

Q: Which self-cleavage does the source give for UACGUAGGUGGUUUUCCCCUGAUAGUGCUAAGGGGGCCUGGAAGUUUGGACUGGGCAGAGCUCAACACAGCGUGGCAAAGUGGCUGUGGCUAGACUGCCUCUCUGGAUUCCUCGUCACUCGGCGGGGCAUCUCUGAGAGAAAUGCC here?
A: 0.97

Q: With UACGUAGGUGGUUUUCCCCUGAUAGUGCUAAGGGGGCCUGGAAGUUUGGACUGGGCAGAGCUCAACACAGCGUGGCAAAGUGGCUGUGGCUAGACUGCCUCUCUGGAUUCCUCGUCACUCAGCUGGGCUUCUCUGAGAGAAAUGCC as the variant, how does the self-cleavage read?
A: 0.9

Q: Which self-cleavage does the source give for UACGUAGGUGGUUUUCCCCUGAUAGUGCUGAGGGGGCCUGGAAGUUUGGACUGGGCAGAGCUUAACACAGCGUGGCAAAGUGGCUGUGGCUAGACUGCCUCUCUGGAUUCCUCGUCACUCAGCAGGGCAUCUCUGAGAGAAAUGCC here?
A: 0.51

Q: Which self-cleavage does the source give for UACGUAGGUGGUUUUCCCCUGAUAGUGCUAAGGGGGCCUGGAAGUUUGGACUGGGCAGAGCUCAACACAGCGUGGCAAAGUGGCUGUGGCUAGACUGCCUCUCUGGGUUACUCGUCACUCAGCAGGGCAUCUCUGAGAGAAAUGCC here?
A: 1.13

Q: Which self-cleavage does the source give for UACGUAGGAGGUUUUCCCCUGAUAGUGCUAAGGGGGCCUGGAAGUUUGGACUGGGCAGAGCUCAACACAGCGUGGCAAAGUGGCUGUGGCUAGACUGCCCCUCUGGAUUCCUCGUCACUCAGCAGGGCAUCUCUGAGAGAAAUGCC here?
A: 1.18
